Results taken from patent US10829799 (UNIVERSITY COURT OF THE UNIVERSITY OF DUNDEE, dated 2020).
One block for each binder: values may come before it.

Experiments:
[1] = target: T1, endogenous UBA1 in HEK293 protein extract (human, UniProt P22314 2-1058, limits assumed); test: probe (25 uM) in HEK293 extract (125 ug), 3 h at 30 C, western blot
T1 construct: In a cell lysate, identified by anti-UBA1 blot and molecular weight
T1 sequence (looked up): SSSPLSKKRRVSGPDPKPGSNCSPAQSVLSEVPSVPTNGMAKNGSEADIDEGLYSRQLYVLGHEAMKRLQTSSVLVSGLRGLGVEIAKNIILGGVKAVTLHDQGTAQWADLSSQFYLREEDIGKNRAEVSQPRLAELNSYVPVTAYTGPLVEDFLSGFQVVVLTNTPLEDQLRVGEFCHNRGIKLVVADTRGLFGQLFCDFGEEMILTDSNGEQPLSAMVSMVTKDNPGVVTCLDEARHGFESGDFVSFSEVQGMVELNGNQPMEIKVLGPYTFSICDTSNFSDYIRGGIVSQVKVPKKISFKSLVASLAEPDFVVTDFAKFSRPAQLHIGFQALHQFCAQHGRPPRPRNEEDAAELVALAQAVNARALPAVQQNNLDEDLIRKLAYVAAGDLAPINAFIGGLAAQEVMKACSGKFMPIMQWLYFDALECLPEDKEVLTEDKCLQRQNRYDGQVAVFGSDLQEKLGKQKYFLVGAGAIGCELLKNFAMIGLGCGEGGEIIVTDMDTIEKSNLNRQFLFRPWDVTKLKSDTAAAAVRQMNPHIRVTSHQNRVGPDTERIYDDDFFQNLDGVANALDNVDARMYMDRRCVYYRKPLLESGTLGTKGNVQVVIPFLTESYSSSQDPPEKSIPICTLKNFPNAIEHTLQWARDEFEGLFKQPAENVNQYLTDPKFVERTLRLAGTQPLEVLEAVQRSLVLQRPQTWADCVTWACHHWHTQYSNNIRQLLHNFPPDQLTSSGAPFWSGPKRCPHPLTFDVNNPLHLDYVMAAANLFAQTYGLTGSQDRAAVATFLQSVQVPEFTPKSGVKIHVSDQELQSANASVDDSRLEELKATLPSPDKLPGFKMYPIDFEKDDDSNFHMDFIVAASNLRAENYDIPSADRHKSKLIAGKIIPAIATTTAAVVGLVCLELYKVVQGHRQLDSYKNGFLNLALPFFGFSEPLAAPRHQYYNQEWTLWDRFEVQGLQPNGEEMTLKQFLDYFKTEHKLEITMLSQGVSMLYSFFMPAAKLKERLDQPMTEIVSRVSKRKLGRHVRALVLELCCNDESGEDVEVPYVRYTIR
Protocol: Labelling was quenched by the addition of 1 part 4×LDS loading buffer (Life Technologies) supplemented with 715 mM 2-mercaptoethanol (BME) to 3 parts probe-treated protein extract. Proteins were resolved by SDS-PAGE (10%) and transferred to nitrocellulose membrane (20 V for 40-60 min) by semi-dry transfer using a Novex Semi-dry device (Life Technologies). Membranes were blocked by incubation with 5% milk powder in phosphate buffered saline+0.1% Tween 20 (PBST) for 1 h. His-tagged species were probed with 1:10000 anti-His primary antibody (Clontech) in PBST+5% milk powder for 30 min at room temperature. Detection was carried out by incubation with 1:2500 anti-mouse-HRP conjugated antibody (Cell Signalling Technologies) in PBST+5% milk powder for 1 h at room temperature. ECL Prime substrate (GE Life Sciences) was used for visualization in accordance with the manufacturers protocol. Probing for UBA1 was carried out with anti-UBA1 primary antibody (Sigma E3152) and incubated for 1 h at room temperature. Detection was carried out by incubation with 1:15000 anti-mouse-HRP conjugated antibody (Cell Signalling Technologies) in PBST+5% milk powder for 1 h at room temperature.
We next tested whether E2 probes could label endogenous proteins in a complex proteome. We prepared additional thioacrylonitrile and thiomethyl acrylate probes built on UBE2D1, UBE2D2, UBE2D3 and UBE2H. […] UBE2H was chosen as it only has a single catalytic cysteine. Human embryonic kidney cell (HEK293) extracts (125 μg) were incubated with empirically determined probe concentrations (5-25 μM).

[2] = target: T2, human Ub E1 activating enzyme UBA1 (recombinant, wild type) (human, UniProt P22314 1-1058); test: covalent activity-based labelling, SDS-PAGE (FIG. 3B)
T2 construct: Catalytic cysteine C632
T2 sequence (looked up): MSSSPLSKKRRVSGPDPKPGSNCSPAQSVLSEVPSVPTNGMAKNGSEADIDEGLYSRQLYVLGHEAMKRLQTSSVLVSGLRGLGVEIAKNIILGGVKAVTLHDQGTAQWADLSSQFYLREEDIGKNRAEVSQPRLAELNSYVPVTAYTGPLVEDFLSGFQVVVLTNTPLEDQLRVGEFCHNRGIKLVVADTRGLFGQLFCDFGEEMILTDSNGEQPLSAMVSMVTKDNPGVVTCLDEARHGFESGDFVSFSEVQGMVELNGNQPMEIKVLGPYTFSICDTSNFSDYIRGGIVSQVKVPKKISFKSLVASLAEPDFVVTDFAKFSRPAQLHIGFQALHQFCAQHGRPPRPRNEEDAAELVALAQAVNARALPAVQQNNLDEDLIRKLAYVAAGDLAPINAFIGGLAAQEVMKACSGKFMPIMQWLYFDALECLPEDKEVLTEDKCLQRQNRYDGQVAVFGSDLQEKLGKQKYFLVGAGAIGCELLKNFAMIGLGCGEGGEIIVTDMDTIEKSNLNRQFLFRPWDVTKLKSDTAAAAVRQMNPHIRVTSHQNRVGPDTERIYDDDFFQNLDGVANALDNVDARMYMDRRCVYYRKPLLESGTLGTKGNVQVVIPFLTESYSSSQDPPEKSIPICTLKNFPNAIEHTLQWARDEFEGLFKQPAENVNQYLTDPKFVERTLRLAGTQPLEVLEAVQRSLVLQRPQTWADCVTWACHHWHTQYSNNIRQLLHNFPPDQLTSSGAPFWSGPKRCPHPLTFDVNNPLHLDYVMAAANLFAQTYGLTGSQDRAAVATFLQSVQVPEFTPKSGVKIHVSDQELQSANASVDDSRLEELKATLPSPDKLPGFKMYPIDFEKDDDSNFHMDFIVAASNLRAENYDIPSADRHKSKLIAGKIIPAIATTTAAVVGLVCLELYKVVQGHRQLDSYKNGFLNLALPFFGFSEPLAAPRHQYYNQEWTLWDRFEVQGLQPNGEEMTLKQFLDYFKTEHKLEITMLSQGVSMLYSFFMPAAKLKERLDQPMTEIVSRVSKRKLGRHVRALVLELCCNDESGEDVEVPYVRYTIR
Protocol: (§1) E2 probes (14 μM) were mixed with E1 enzyme (3.5 μM) and diluted 10× reaction buffer (500 mM Na_2HPO_4 pH 8) or 10×Ub-ATP buffer (500 mM Na_2HPO_4 pH 8, 20 μM ubiquitin, 20 mM ATP) to a final volume of 15-50 μL. Reactions were incubated at 30° C. and 15 μL aliquots were taken at 1 and 5 h time points which were quenched with 5 μL of reducing SDS-gel loading buffer (NuPAGE LDS loading buffer (4×), 715 mM 2-mercaptoethanol). The quenched reaction solutions were boiled for 5 minute at 100° C. and then 4 μL was analysed by SDS-PAGE (NuPAGE Bis-Tris, 4-12%).

[3] = target: T3, UBA7 (ISG15 E1; His-tagged human UBA7) (human, UniProt P41226 1-1012); test: covalent activity-based labelling, SDS-PAGE (FIG. 3E)
T3 construct: not shown: N-terminal 6xHis tag of the pFastBacHTB vector
T3 sequence (looked up): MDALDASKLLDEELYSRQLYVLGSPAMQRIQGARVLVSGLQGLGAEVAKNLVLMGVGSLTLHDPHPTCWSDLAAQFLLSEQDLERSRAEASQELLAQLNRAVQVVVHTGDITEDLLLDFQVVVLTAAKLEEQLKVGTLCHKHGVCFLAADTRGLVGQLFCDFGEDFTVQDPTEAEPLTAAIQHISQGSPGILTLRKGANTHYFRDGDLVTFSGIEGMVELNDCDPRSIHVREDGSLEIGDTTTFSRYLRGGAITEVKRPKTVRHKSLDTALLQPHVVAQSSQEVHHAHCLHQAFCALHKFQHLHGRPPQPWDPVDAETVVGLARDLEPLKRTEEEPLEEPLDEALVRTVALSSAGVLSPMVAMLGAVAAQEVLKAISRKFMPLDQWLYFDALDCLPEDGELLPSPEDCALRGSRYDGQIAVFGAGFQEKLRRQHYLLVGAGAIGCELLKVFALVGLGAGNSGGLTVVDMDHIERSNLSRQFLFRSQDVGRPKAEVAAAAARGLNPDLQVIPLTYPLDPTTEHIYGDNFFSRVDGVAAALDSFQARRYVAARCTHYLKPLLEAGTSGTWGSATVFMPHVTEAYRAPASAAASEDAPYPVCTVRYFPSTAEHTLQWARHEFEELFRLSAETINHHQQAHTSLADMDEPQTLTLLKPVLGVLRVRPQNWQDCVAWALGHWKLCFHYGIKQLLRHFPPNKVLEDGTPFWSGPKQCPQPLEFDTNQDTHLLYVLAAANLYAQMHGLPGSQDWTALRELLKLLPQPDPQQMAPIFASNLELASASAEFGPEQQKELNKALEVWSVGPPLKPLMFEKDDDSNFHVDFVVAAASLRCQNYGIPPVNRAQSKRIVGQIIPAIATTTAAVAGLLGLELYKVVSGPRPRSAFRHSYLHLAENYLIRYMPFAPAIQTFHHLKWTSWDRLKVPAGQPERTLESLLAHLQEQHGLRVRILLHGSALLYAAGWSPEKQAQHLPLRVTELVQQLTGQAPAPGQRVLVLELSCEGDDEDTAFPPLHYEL
Protocol: as §1

[4] = target: T2, human Ub E1 activating enzyme UBA1 …; test: covalent activity-based labelling, UBA1 3.5 uM with 4 eq. of probe, 30 C, reducing SDS-PAGE
Protocol: as §1

[5] = target: T2, human Ub E1 activating enzyme UBA1 …; test: covalent activity-based labelling of UBA1, reducing SDS-PAGE
Protocol: as §1

B1: UBE2H thioacrylonitrile probe (enzyme)
chain: MGSSHHHHHHSSGLEVLFQGPGSMSSPSPGKRRMDTDVVKLIESKHEVTILGGLNEFVVKFYGPQGTPYEGGVWKVRVDLPDKYPFKSPSIGFMNKIFHPNIDEASGTVCLDVINQTWTALYDLTNIFESFLPQLLAYPNPIDPLNGDAAAMYLHRPEEYKQKIKEYIQKYATEEALKEQEEGTGDSSSESSMSDFSEDEAQDMEL
modifications: single catalytic cysteine labelled with TDMA 1 (thioacrylonitrile)
notes: also called UBE2H-=CN
- binding result [1]: binds

B2: UBE2H thiomethyl acrylate probe (enzyme)
chain: MGSSHHHHHHSSGLEVLFQGPGSMSSPSPGKRRMDTDVVKLIESKHEVTILGGLNEFVVKFYGPQGTPYEGGVWKVRVDLPDKYPFKSPSIGFMNKIFHPNIDEASGTVCLDVINQTWTALYDLTNIFESFLPQLLAYPNPIDPLNGDAAAMYLHRPEEYKQKIKEYIQKYATEEALKEQEEGTGDSSSESSMSDFSEDEAQDMEL
modifications: single catalytic cysteine labelled with TDMA 2 (thiomethyl acrylate)
notes: also called UBE2H-VME
- binding result [1]: binds

B3: UBE2L3**-=CN (enzyme)
chain: MGSSHHHHHHSSGLEVLFQGPGSMAASRRLMKELEEIRKSGMKNFRNIQVDEANLLTWQGLIVPDNPPYDKGAFRIEINFPAEYPFKPPKITFKTKIYHPNIDEKGQVCLPVIAAENWKPATKTDQVIQSLIALVNDPQPEHPLRADLAEEYSKDRKKFSKNAEEFTKKYGEKRPVD
modifications: catalytic cysteine labelled with TDMA 1: thioacrylonitrile warhead
notes: also called UBE2L3** thioacrylonitrile probe
- binding result [2]: binds

B4: UBE2L6*-=CN (enzyme)
chain: MGSSHHHHHHSSGLEVLFQGPGSMMASMRVVKELEDLQKKPPPYLRNLSSDDANVLVWHALLLPDQPPYHLKAFNLRISFPPEYPFKPPMIKFTTKIYHPNVDENGQICLPIISSENWKPSTKTSQVLEALNVLVNRPNIREPLRMDLADLLTQNPELFRKNAEEFTLRFGVDRPS
modifications: catalytic cysteine labelled with TDMA 1: thioacrylonitrile warhead
- binding result [3]: binds

Next, values leading:

- binding result [3]: binds
B5: UBE2L6**-=CN (enzyme)
chain: MGSSHHHHHHSSGLEVLFQGPGSMMASMRVVKELEDLQKKPPPYLRNLSSDDANVLVWHALLLPDQPPYHLKAFNLRISFPPEYPFKPPMIKFTTKIYHPNVDENGQICLPIIASENWKPSTKTSQVLEALNVLVNRPNIREPLRMDLADLLTQNPELFRKNAEEFTLRFGVDRPS
modifications: catalytic cysteine labelled with TDMA 1: thioacrylonitrile warhead

- binding result [1]: binds
- binding result [4]: binds
B6: UBE2N-=CN (His-tagged UBE2N labelled with (E)-3-tosylacrylonitrile 1; thioacrylonitrile probe) (enzyme)
chain: MGSSHHHHHHSSGLEVLFQGPGSAGLPRRIIKETQRLLAEPVPGIKAEPDESNARYFHVVIAGPQDSPFEGGTFKLELFLPEEYPMAAPKVRFMTKIYHPNVDKLGRICLDILKDKWSPALQIRTVLLSIQALLSAPNPDDPLANDVAEQWKTNEAQAIETARAWTRLYAMNNI
modifications: cysteine labelled with TDMA 1: thioacrylonitrile (activated vinylsulfide) warhead
notes: E2-based activity-based probe; forms a covalent bisthioether with the catalytic cysteine of the E1; also called Ubc13-=CN

- binding result [5]: binds
- binding result [1]: binds
B7: UBE2N-VME (His-tagged UBE2N labelled with (E)-methyl 3-tosylacrylate 2; thiomethyl acrylate probe) (enzyme)
chain: MGSSHHHHHHSSGLEVLFQGPGSAGLPRRIIKETQRLLAEPVPGIKAEPDESNARYFHVVIAGPQDSPFEGGTFKLELFLPEEYPMAAPKVRFMTKIYHPNVDKLGRICLDILKDKWSPALQIRTVLLSIQALLSAPNPDDPLANDVAEQWKTNEAQAIETARAWTRLYAMNNI
modifications: cysteine labelled with TDMA 2: thiomethyl acrylate warhead
notes: also called Ubc13-VME
